Test results: PMC10380293 (International Journal of Molecular Sciences, 2023)
Several values for one entry are separate records, joined by “and”; a condition that tells them apart may be missing. Equal entries are not always repeated.

B1: p15-mNeonGreen (natural protein, UniProt Q15004 1-111, looked up)
chain: MVRTKADSVPGTYRKVVAARAPRKVLGSSTSATNSTSVSSRKAENKYAGGNPVCVRPTPKWQKGIGEFFRLSPKDSEKENQIPEEAGSSGLGKAKRKACPLQPDHTNDEKE

Legend:
[1] = target: mScarlet-I-PCNA^C148S (human, UniProt P12004 1-261, C148S); test: FRET or BRET; 1 µM p15-mNeonGreen (donor) with 0-3.09 µM mScarlet-I-PCNA (acceptor, protomer concentration) in PBS with 1 mM DTT, 37 °C for 1 h, 384 well plate; sensitized emission by the three-channel method, control mNeonGreen/mScarlet-I-PCNA subtracted; apparent for C148S; details: both partners purified
[2] = target: mScarlet-I-PCNA (human, UniProt P12004 1-261); test: FRET or BRET; competition: 1 µM p15-mNeonGreen and 1 µM mScarlet-I-PCNA with varying inhibitor (0-100 µM p15^51-70, 0-20 µM unlabeled PCNA), 1 h at 37 °C, PBS with 1 mM DTT; sensitized emission; Ki by the Cheng-Prusoff equation; details: both partners purified
Sequence of mScarlet-I-PCNA (P12004 whole entry): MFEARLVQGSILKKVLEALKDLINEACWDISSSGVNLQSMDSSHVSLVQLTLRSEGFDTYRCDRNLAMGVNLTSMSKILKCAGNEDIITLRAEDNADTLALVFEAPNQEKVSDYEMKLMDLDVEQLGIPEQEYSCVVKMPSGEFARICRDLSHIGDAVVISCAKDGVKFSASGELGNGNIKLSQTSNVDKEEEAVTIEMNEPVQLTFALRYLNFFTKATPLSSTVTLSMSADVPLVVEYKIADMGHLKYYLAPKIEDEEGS

Sequence of mScarlet-I-PCNA^C148S (P12004 whole entry C148S): as the sequence (P12004 whole entry) above, with C148S counted along it

Binder	Kd [1]	IC50 [2]	Ki [2]
B1	3.09 µM	–	–
NPVCVRPTPKWQKGIGEFFR [peptide p15^51–70]	–	9.81 µM	2.94 µM and 2.99 µM
